B1: TBLR1-LgBiT wild type [not stated] / SETD5-SmBiT [not stated] (parent complex)
chain 1: MSISSDEVNFLVYRYLQESGFSHSAFTFGIESHISQSNINGALVPPAALISIIQKGLQYVEAEVSINEDGTLFDGRPIESLSLIDAVMPDVVQTRQQAYRDKLAQQQAAAAAAAAAAASQQGSAKNGENTANGEENGAHTIANNHTDMMEVDGDVEIPPNKAVVLRGHESEVFICAWNPVSDLLASGSGDSTARIWNLSENSTSGSTQLVLRHCIREGGQDVPSNKDVTSLDWNSEGTLLATGSYDGFARIWTKDGNLASTLGQHKGPIFALKWNKKGNFILSAGVDKTTIIWDAHTGEAKQQFPFHSAPALDVDWQSNNTFASCSTDMCIHVCKLGQDRPIKTFQGHTNEVNAIKWDPTGNLLASCSDDMTLKIWSMKQDNCVHDLQAHNKEIYTIKWSPTGPGTNNPNANLMLASASFDSTVRLWDVDRGICIHTLTKHQEPVYSVAFSPDGRYLASGSFDKCVHIWNTQTGALVHSYRGTGGIFEVCWNAAGDKVGASASDGSVCVLDLRK
chain 2: MSIAIPLGVTTSDTSYSDMAAGSDPESVEASPAVNEKSVYSTHNYGTTQRHGCRGLPYATIIPRSDLNGLPSPVEERCGDSPNSEGETVPTWCPCGLSQDGFLLNCDKCRGMSRGKVIRLHRRKQDNISGGDSSATESWDEELSPSTVLYTATQHTPTSITLTVRRTKPKKRKKSPEKGRAAPKTKKIKNSPSEAQNLDENTTEGWENRIRLWTDQYEEAFTNQYSADVQNALEQHLHSSKEFVGKPTILDTINKTELACNNTVIGSQMQLQLGRVTRVQKHRKILRAARDLALDTLIIEYRGKVMLRQQFEVNGHFFKKPYPFVLFYSKFNGVEMCVDARTFGNDARFIRRSCTPNAEVRHMIADGMIHLCIYAVSAITKDAEVTIAFDYEYSNCNYKVDCACHKGNRNCPIQKRNPNATELPLLPPPPSLPTIGAETRRRKARRKELEMEQQNEASEENNDQQSQEVPEKVTVSSDHEEVDNPEEKPEEEKEEVIDDQENLAHSRRTREDRKVEAIMHAFENLEKRKKRRDQPLEQSNSDVEITTTTSETPVGEETKTEAPESEVSNSVSNVTIPSTPQSVGVNTRRSSQAGDIAAEKLVPKPPPAKPSRPRPKSRISRYRTSSAQRLKRQKQANAQQAELSQAALEEGGSNSLVTPTEAGSLDSSGENRPLTGSDPTVVSITGSHVNRAASKYPKTKKYLVTEWLNDKAEKQECPVECPLRITTDPTVLATTLNMLPGLIHSPLICTTPKHYIRFGSPFIPERRRRPLLPDGTFSSCKKRWIKQALEEGMTQTSSVPQETRTQHLYQSNENSSSSSICKDNADLLSPLKKWKSRYLMEQNVTKLLRPLSPVTPPPPNSGSKSPQLATPGSSHPGEEECRNGYSLMFSPVTSLTTASRCNTPLQFELCHRKDLDLAKVGYLDSNTNSCADRPSLLNSGHSDLAPHPSLGPTSETGFPSRSGDGHQTLVRNSDQAFRTEFNLMYAYSPLNAMPRADGLYRGSPLVGDRKPLHLDGGYCSPAEGFSSRYEHGLMKDLSRGSLSPGGERACEGVPSAPQNPPQRKKVSLLEYRKRKQEAKENSAGGGGDSAQSKSKSAGAGQGSSNSVSDTGAHGVQGSSARTPSSPHKKFSPSHSSMSHLEAVSPSDSRGTSSSHCRPQENISSRWMVPTSVERLREGGSIPKVLRSSVRVAQKGEPSPTWESNITEKDSDPADGEGPETLSSALSKGATVYSPSRYSYQLLQCDSPRTESQSLLQQSSSPFRGHPTQSPGYSYRTTALRPGNPPSHGSSESSLSSTSYSSPAHPVSTDSLAPFTGTPGYFSSQPHSGNSTGSNLPRRSCPSSAASPTLQGPSDSPTSDSVSQSSTGTLSSTSFPQNSRSSLPSDLRTISLPSAGQSAVYQASRVSAVSNSQHYPHRGSGGVHQYRLQPLQGSGVKTQTGLS

Variants of: B1
Assay: NanoLuc complementation assay; n = 6–7 independent transfections per TBLR1 mutant; read off a plot

ratio to parent	Variant
~1.3	chain 1 MSISSDEVNFLVYRYLQESGFSHSAFTFGIESHISQSNINGALVPPAALISIIQKGLQYVEAEVSINEDGTLFDGRPIESLSLIDAVMPDVVQTRQQAYRDKLAQQQAAAAAAAAAAASQQGSAKNGENTANGEENGAHTIANNHTDMMEVDGDVEIPPNKAVVLRGHESEVFICAWNPVSDLLASGSGDSTARIWNLSENSTSGSTQLVLRHCIREGGQDVPSNKDVTSLDWNSEGTLLATGSYDGFARIWTKDGNLASTLGQHKGPIFALKWNKKGNFILSAGVDKTTIIWDAHTGEAKQQFPFHSAPALDVDWQSNNTFASCSTDMCIHVCKLGQDRPIKTFQGHTNEVNAIKWDPTGNLLASCSDDMTLKIWSMKQDNCVHDLQAHNKEIYTIKWSPTGPGTNNPNANLMLASASFDSTVRLWDVDRGICIHTLTKHQEPVCSVAFSPDGRYLASGSFDKCVHIWNTQTGALVHSYRGTGGIFEVCWNAAGDKVGASASDGSVCVLDLRK [chain 1 Y446C]
~0.06	chain 1 MSISSDEVNFLVYRYLQESGFSHSAFTFGIESHISQSNINGALVPPAALISIIQKGLQYVEAEVSINEDGTLFDGRPIESLSLIDAVMPDVVQTRQQAYRDKLAQQQAAAAAAAAAAASQQGSAKNGENTANGEENGAHTIANNHTDMMEVDGDVEIPPNKAVVLRGHESEVFICAWNPVSDLLASGSGDSTARIWNLSENSTSGSTQLVLRHCIREGGQDVPSNKDVTSLDWNSEGTLLATGSYDGFARIWTKDGNLASTLGQHKGPIFALKWNKKGNFILSAGVDKTTIIWDAHTGEAKQQFPFHSAPALDVDWQSNNTFASCSTDMCIHVCKLGQDRPIKTFQGHTNEVNAIKWDPTGNLLASCSDDMTLKIWSMKQDNCVHDLQAHNKEIYTIKWSPTGPGTNNPNANLMLARASFDSTVRLWDVDRGICIHTLTKHQEPVYSVAFSPDGRYLASGSFDKCVHIWNTQTGALVHSYRGTGGIFEVCWNAAGDKVGASASDGSVCVLDLRK [chain 1 S417R]
~1.1	chain 1 MSISSDEVNFLVYRYLQESGFSHSAFTFGIESHISQSNINGALVPPAALISIIQKGLQYVEAEVSINEDGTLFDGRPIESLSLIDAVMPDVVQTRQQAYRDKLAQQQAAAAAAAAAAASQQGSAKNGENTANGEENGAHTIANNHTDMMEVDGDVEIPPNKAVVLRGHESEVFICAWNPVSDLLASGSGDSTARIWNLSENSTSGSTQLVLRHCIREGGQDVPSNKDVTSLDWNSEGTLLATGSYDGFARIWTKDGNLASTLGQHKGPIFALKWNKKGNFILSAGVDKTTIIWDAHTGEAKQQFPFHSAPALDVDWQSNNSFASCSTDMCIHVCKLGQDRPIKTFQGHTNEVNAIKWDPTGNLLASCSDDMTLKIWSMKQDNCVHDLQAHNKEIYTIKWSPTGPGTNNPNANLMLASASFDSTVRLWDVDRGICIHTLTKHQEPVYSVAFSPDGRYLASGSFDKCVHIWNTQTGALVHSYRGTGGIFEVCWNAAGDKVGASASDGSVCVLDLRK [chain 1 T321S]

The next lines start with the variant.

Variant	ratio to parent
chain 1 MSISSDEVNFLVYRYLQESGFSHSAFTFGIESHISQSNINGALVPPAALISIIQKGLQYVEAEVSINEDGTLFDGRPIESLSLIDAVMPDVVQTRQQAYRDKLAQQQAAAAAAAAAAASQQGSAKNGENTANGEENGAHTIANNHTDMMEVDGDVEIPPNKAVVLRGHESEVFICAWNPVSDLLASGSGDSTARIWNLSENSTSGSTQLVLRHCIREGGQDVPSNKDVTSLDWNSEGTLLATGSYDGFARIWTKDGNLASTLGQHKGPIFALKWNKKGNFILSAGVDKTTIIWDAHTGEAKQQFPFHSAPALDVDWQSNNTFASCSTDMCIHVCKLGQDRPIKTFQGHTNEVNAIKWDPTGNLLASCSDDMTLKIWSMKQDNCVHDLQAHNKEIYTIKWSPTGPGTNNPNANLMLASASFDSTVRLWDVDRGICIHTLTKHQERVYSVAFSPDGRYLASGSFDKCVHIWNTQTGALVHSYRGTGGIFEVCWNAAGDKVGASASDGSVCVLDLRK [chain 1 P444R]	~0.7
chain 1 MSISSDEVNFLVYRYLQESGFSHSAFTFGIESHISQSNINGALVPPAALISIIQKGLQYVEAEVSINEDGTLFDGRPIESLSLIDAVMPDVVQTRQQAYRDKLAQQQAAAAAAAAAAASQQGSAKNGENTANGEENGAHTIANNHTDMMEVDGDVEIPPNKAVVLRGHESEVFICAWNPVSDLLASGSGDSTARIWNLSENSTSGSTQLVLRHCIREGGQDVPSNKDVTSLDWNSEGTLLATGSYDGFARIWTKDGNLASTLGQHKGPIFALKWNKKGNFILSAGVDKTTIIWDAHTGEAKQQFPFHSAPALDVDWQSNNTFASCSTHMCIHVCKLGQDRPIKTFQGHTNEVNAIKWDPTGNLLASCSDDMTLKIWSMKQDNCVHDLQAHNKEIYTIKWSPTGPGTNNPNANLMLASASFDSTVRLWDVDRGICIHTLTKHQEPVYSVAFSPDGRYLASGSFDKCVHIWNTQTGALVHSYRGTGGIFEVCWNAAGDKVGASASDGSVCVLDLRK [chain 1 D328H]	~0.55
chain 1 MSISSDEVNFLVYRYLQESGFSHSAFTFGIESHISQSNINGALVPPAALISIIQKGLQYVEAEVSINEDGTLFDGRPIESLSLIDAVMPDVVQTRQQAYRDKLAQQQAAAAAAAAAAASQQGSAKNGENTANGEENGAHTIANNHTDMMEVDGDVEIPPNKAVVLRGHESEVFICAWNPVSDLLASGSGDSTARIWNLSENSTSGSTQLVLRHCIREGGQDVPSNKDVTSLDWNSEGTLLATGSYDGFARIWTKDGNLASTLGQHKGPILALKWNKKGNFILSAGVDKTTIIWDAHTGEAKQQFPFHSAPALDVDWQSNNTFASCSTDMCIHVCKLGQDRPIKTFQGHTNEVNAIKWDPTGNLLASCSDDMTLKIWSMKQDNCVHDLQAHNKEIYTIKWSPTGPGTNNPNANLMLASASFDSTVRLWDVDRGICIHTLTKHQEPVYSVAFSPDGRYLASGSFDKCVHIWNTQTGALVHSYRGTGGIFEVCWNAAGDKVGASASDGSVCVLDLRK [chain 1 F270L]	~1.8
